Patent US20130251724A1 (GlaxoSmithKline, published 2013)
“And” between values parts separate entries of the source, which are not always exact repeats. Identical values can stand only once. Like-named read-outs stand apart in the source and are kept apart here.

Key:
Human OSM [1] = target: T1, Human OSM (human, UniProt P13725 26-221); assay: cell-based or functional assay
T1 sequence: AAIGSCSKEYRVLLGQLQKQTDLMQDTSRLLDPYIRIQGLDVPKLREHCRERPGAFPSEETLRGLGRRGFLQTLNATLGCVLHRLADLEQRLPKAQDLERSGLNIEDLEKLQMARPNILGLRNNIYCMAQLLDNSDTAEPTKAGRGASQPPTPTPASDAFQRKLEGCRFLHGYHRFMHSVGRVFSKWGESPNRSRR

Cynomolgus OSM [2] = target: T2, Cynomolgus OSM (cynomolgus, UniProt A0A2K5VPC6 26-221); assay: cell-based or functional assay
T2 sequence: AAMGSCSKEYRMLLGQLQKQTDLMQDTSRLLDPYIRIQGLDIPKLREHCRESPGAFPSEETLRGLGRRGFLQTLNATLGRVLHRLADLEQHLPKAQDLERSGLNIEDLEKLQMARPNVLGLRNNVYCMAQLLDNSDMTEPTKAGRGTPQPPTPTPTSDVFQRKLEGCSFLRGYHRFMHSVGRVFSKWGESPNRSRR

Human OSM [3] = target: T1, Human OSM; assay: Kinexa solution phase affinity
Description: (§1) Kinexa (Sapidyne Instruments 3200) solution phase affinity was used to determine the overall affinity of anti-OSM antibody H0(huCDRH1)L1 and Humanised 15E10 (an unrelated OSM antibody) to human, cynomolgus macaque, rhesus macaque and marmoset OSM (Table 15). Humanised 15E10 was added for comparison purposes.
(§2) OSM beads were prepared either by adsorption (polymethylmethacrylate beads-PMMA) or amine coupling (NHS-activated sepharose beads). The range of OSM molecules studied necessitated the generation of beads coated with different concentrations of OSM. For the solution phase portion of the assay, a fixed concentration of antibody was incubated with a broad range of OSM concentrations and allowed to reach equilibrium by incubation at r.t. for at least 2 h before analysis proceeded. The OSM beads were then used to determine the amount of free antibody present in the solution phase samples, by means of the free antibody binding to the OSM bead matrix then detected using an appropriate secondary antibody (either anti-human or anti-mouse depending on the construct being tested) labelled with a fluorescent dye. The binding curves where fitted using the Kinexa Pro analysis software inherent to the machine. Multiple runs using varying starting concentrations of antibody were then compiled and analysed using the n-curve analysis software to give a more accurate determination of affinity.

Cynomolgus OSM [4] = target: T2, Cynomolgus OSM; assay: Kinexa solution phase affinity
Description: as §1, §2

Marmoset OSM [5] = target: T3, Marmoset OSM (marmoset); assay: Kinexa solution phase affinity
T3 construct: also called Marm OSM
Description: as §1, §2

Rhesus OSM = target: T4, Rhesus OSM (rhesus macaque, UniProt F7GF43 26-221); assay: Kinexa solution phase affinity
T4 construct: also called rhesus macaque OSM
T4 sequence: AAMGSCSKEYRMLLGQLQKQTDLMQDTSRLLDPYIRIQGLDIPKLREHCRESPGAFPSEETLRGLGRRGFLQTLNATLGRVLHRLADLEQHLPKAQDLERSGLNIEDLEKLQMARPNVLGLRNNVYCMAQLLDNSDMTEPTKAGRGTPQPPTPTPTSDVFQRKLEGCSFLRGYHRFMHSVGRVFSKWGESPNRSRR
Description: as §1, §2

Human OSM [6] = target: T1, Human OSM; assay: cell-based or functional assay; remark: listed apart in the source
Human OSM [7] = target: T1, Human OSM; assay: cell-based or functional assay; remark: listed apart in the source
Human OSM [8] = target: T1, Human OSM; assay: cell-based or functional assay; remark: listed apart in the source
Human OSM [9] = target: T1, Human OSM; assay: cell-based or functional assay; remark: listed apart in the source
Human OSM [10] = target: T1, Human OSM; assay: cell-based or functional assay; remark: listed apart in the source
Human OSM [11] = target: T1, Human OSM; assay: cell-based or functional assay; remark: listed apart in the source
Human OSM [12] = target: T1, Human OSM; assay: cell-based or functional assay; remark: listed apart in the source
Human OSM [13] = target: T1, Human OSM; assay: cell-based or functional assay; remark: listed apart in the source
Human OSM [14] = target: T1, Human OSM; assay: BIAcore kinetics, purified antibody
Cynomolgus OSM [15] = target: T2, Cynomolgus OSM; assay: BIAcore kinetics, purified antibody
Human OSM [16] = target: T1, Human OSM; assay: BIAcore kinetics, purified antibody; remark: listed apart in the source
Cynomolgus OSM [17] = target: T2, Cynomolgus OSM; assay: BIAcore kinetics, purified antibody; remark: listed apart in the source
[18] = target: T5, Endogenous human OSM (neutrophil-derived) (human, UniProt P13725 26-221, limits assumed); assay: gp130 ELISA with endogenous neutrophil-derived human OSM
T5 construct: Native OSM generated from GM-CSF stimulation of healthy human neutrophils; also called native OSM; endogenous OSM
T5 sequence: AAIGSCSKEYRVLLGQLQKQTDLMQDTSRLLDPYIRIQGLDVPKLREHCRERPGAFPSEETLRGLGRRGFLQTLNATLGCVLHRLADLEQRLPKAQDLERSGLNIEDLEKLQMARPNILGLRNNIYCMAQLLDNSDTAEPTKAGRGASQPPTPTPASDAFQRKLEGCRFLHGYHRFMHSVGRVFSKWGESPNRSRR

Human OSM [19] = target: T1, Human OSM; assay: BIAcore kinetics
Cynomolgus OSM [20] = target: T2, Cynomolgus OSM; assay: BIAcore kinetics
Human OSM [21] = target: T1, Human OSM; assay: cell-based or functional assay; remark: listed apart in the source
Cynomolgus OSM [22] = target: T2, Cynomolgus OSM; assay: cell-based or functional assay; remark: listed apart in the source
Human OSM [23] = target: T1, Human OSM; assay: cell-based or functional assay; remark: listed apart in the source
Cynomolgus OSM [24] = target: T2, Cynomolgus OSM; assay: cell-based or functional assay; remark: listed apart in the source
Marmoset OSM [25] = target: T3, Marmoset OSM; assay: cell-based or functional assay
Human OSM [26] = target: T1, Human OSM; assay: BIAcore kinetics, purified antibody; remark: listed apart in the source
Human OSM [27] = target: T1, Human OSM; assay: BIAcore kinetics, transfection supernatant
Human OSM [28] = target: T1, Human OSM; assay: human gp130 ELISA, inhibition of OSM binding to gp130
Cynomolgus OSM [29] = target: T2, Cynomolgus OSM; assay: as above
[30] = target: T5, Endogenous human OSM …; assay: gp130 ELISA with endogenous neutrophil-derived human OSM; remark: listed apart in the source
Human OSM [31] = target: T1, Human OSM; assay: direct ELISA, human OSM coated at 1 µg/ml, detection with anti-human IgG
Description: Both the 10G8 and 9G2 chimaeras successfully bound to human OSM, to a greater extent than 15E10chimera (15E10c) (FIG. 11). This was a direct ELISA where human OSM was coated at 1 μg/ml and bound antibodies detected using anti-human IgG.

B1: 15E10h, non-competitive anti-OSM humanised antibody (antibody, human IgG1, kappa, V domains shown)
VH: QVQLVESGGGVVQPGRSLRLSCAASGFSLTNYGVHWVRQAPGKGLEWVAVIWRGGSTDYNAAFMSRFTISKDNSKNTLYLQMNSLRAEDTAVYYCAKSPNSNFYWYFDVWGRGTLVTVSS
VL: EIVLTQSPATLSLSPGERATLSCSGSSSVSYMYWYQQKPGQAPRLLIEDTSNLASGIPARFSGSGSGTDYTLTISNLEPEDFAVYYCQQWSSYPPTFGQGTKLEIKR
notes: also called Humanised 15E10; humanised 15E10
KB cell neutralisation assay, mean IC50 (Human OSM [1]): 0.0391 µg/ml and 261 pM | KB cell neutralisation assay, mean IC50 (Cynomolgus OSM [2]): 0.0054 µg/ml and 36 pM | Kd (Human OSM [3]): 727 pM | Kd (Cynomolgus OSM [4]): 102 pM | Kd (Marmoset OSM [5]): 6100 pM | Kd (Rhesus OSM): 102 pM | IC50 (read off the curve); IL-6 release from HFLS-RA cells stimulated with 0.3 ng/ml human OSM (Human OSM [6]): ~100 pM | IC50 (read off the curve); IL-6 release from HFLS-RA cells stimulated with 3 ng/ml human OSM (Human OSM [7]): ~2000 pM | IC50 (read off the curve); MCP-1 release from HFLS-RA cells stimulated with 0.3 ng/ml human OSM (Human OSM [8]): ~200 pM | IC50 (read off the curve); MCP-1 release from HFLS-RA cells stimulated with 3 ng/ml human OSM (Human OSM [9]): ~2000 pM | IC50 (read off the curve); MCP-1 release from normal human lung fibroblasts stimulated with 3 ng/ml OSM (Human OSM [10]): ~1 µg/mL | IC50 (read off the curve); MCP-1 release from IPF human lung fibroblasts stimulated with 3 ng/ml OSM (Human OSM [11]): ~2 µg/mL | IC50 (read off the curve); IL-6 release from normal human lung fibroblasts stimulated with 3 ng/ml OSM (Human OSM [12]): ~0.6 µg/mL | IC50 (read off the curve); IL-6 release from IPF human lung fibroblasts stimulated with 3 ng/ml OSM (Human OSM [13]): ~1 µg/mL | Kd (Human OSM [14]): 1430 pM | koff (Human OSM [14]): 0.000615 s⁻¹ | kon (Human OSM [14]): 429000 M⁻¹ s⁻¹ | Kd (Cynomolgus OSM [15]): 590 pM | koff (Cynomolgus OSM [15]): 0.00031 s⁻¹ | kon (Cynomolgus OSM [15]): 526000 M⁻¹ s⁻¹ | Kd (Human OSM [16]): 882 pM | koff (Human OSM [16]): 0.000649 s⁻¹ | kon (Human OSM [16]): 736000 M⁻¹ s⁻¹ | Kd (Cynomolgus OSM [17]): 640 pM | koff (Cynomolgus OSM [17]): 0.000324 s⁻¹ | kon (Cynomolgus OSM [17]): 507000 M⁻¹ s⁻¹ | IC50 [18]: 0.076 µg/mL and 0.507 nM

B2: 10G8 chimaera (antibody, human IgG1, kappa, V domains shown)
VH: EMQLVESGEGLVEPGGSLKLSCAASGFTFSNYAMSWVRQTPEKSLEWVATISDGGSFTYYLDNVRGRFTISRDNAKNNLYLQMSHLKSDDTAMYYCARDVGHTTFWYFDVWGSGTLVTVSS
VL: DIVLTQSPVFLVVSLGQRATISCRASKSVSAAGYNFMHWYQQKPGQPPKVLIKYASNLESGVPARFSGSGSGTDFTLNIHPVEEEDAVTYYCLHSREFPFTFGGGTNLEIKR
notes: Mouse V regions on human gamma 1 wild type and human kappa constant regions; the entries called VH/VL domain (chimera) are full chains; also called 10G8 chimera; 10G8 Chimæra
Kd (Human OSM [19]): 654 pM | koff (Human OSM [19]): 0.000152 s⁻¹ | kon (Human OSM [19]): 233000 M⁻¹ s⁻¹ | Kd (Cynomolgus OSM [20]): 480 pM | koff (Cynomolgus OSM [20]): 0.000114 s⁻¹ | kon (Cynomolgus OSM [20]): 237000 M⁻¹ s⁻¹ | KB cell neutralisation assay, mean IC50 (Human OSM [21]): 0.021 µg/ml and 140 pM | KB cell neutralisation assay, mean IC50 (Cynomolgus OSM [22]): 0.008 µg/ml and 53 pM | KB cell neutralisation assay, mean IC50 (Human OSM [23]): 0.022 µg/ml and 144 pM | KB cell neutralisation assay, mean IC50 (Cynomolgus OSM [24]): 0.008 µg/ml and 100 pM | KB cell neutralisation assay, mean IC50 (Human OSM [1]): 0.0052 µg/ml and 35 pM | KB cell neutralisation assay, mean IC50 (Cynomolgus OSM [2]): 0.0011 µg/ml and 7 pM | KB cell neutralisation assay, mean IC50 (Marmoset OSM [25]): 0.0271 µg/ml and 181 pM | Kd (Human OSM [26]): 407 pM | koff (Human OSM [26]): 0.000105 s⁻¹ | kon (Human OSM [26]): 257000 M⁻¹ s⁻¹ | Kd (Human OSM [14]): 518 pM | koff (Human OSM [14]): 0.000125 s⁻¹ | kon (Human OSM [14]): 241000 M⁻¹ s⁻¹ | Kd (Cynomolgus OSM [15]): 394 pM | koff (Cynomolgus OSM [15]): 9.95e-05 s⁻¹ | kon (Cynomolgus OSM [15]): 253000 M⁻¹ s⁻¹ | Kd (Human OSM [16]): 184 pM | koff (Human OSM [16]): 7.87e-05 s⁻¹ | kon (Human OSM [16]): 427000 M⁻¹ s⁻¹ | Kd (Cynomolgus OSM [17]): 266 pM | koff (Cynomolgus OSM [17]): 6.63e-05 s⁻¹ | kon (Cynomolgus OSM [17]): 250000 M⁻¹ s⁻¹ | Kd (Human OSM [27]): 407 pM | koff (Human OSM [27]): 0.000103 s⁻¹ | kon (Human OSM [27]): 252000 M⁻¹ s⁻¹ | IC50 (Human OSM [28]): 0.037 µg/mL and 0.247 nM | IC50 (Cynomolgus OSM [29]): 0.016 µg/mL and 0.107 nM | IC50 [30]: 0.009 µg/mL and 0.06 nM | IC50 [18]: 0.0091 µg/mL and 0.061 nM | EC50 (read off the curve) (Human OSM [31]): ~200 pM
